# Laboratory results published in the supplement of paper PMC12764529.
# ± gives the half width of the 95% confidence interval.
# Legend:
# [1] = folding stability dG unfold from trypsin proteolysis; higher = more stable
# Summary of the method: (§1)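 Only designs with AlphaFold2 dimer inter-PAE above 15 were retained; each was a mini-protein under 80 residues with no cysteine, in a PA-tagged cDNA display construct. After digestion with trypsin and chymotrypsin and sequencing, K50 was inferred by Bayesian fitting of counts, and unfolding free energy was derived per protease or combined against a sequence-predicted unfolded-state K50 and a shared folded-state K50.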
# [2] = folding stability dG unfold (combined trypsin and chymotrypsin); higher = more stable
# Summary of the method: as §1
# [3] = folding stability dG unfold from chymotrypsin proteolysis; higher = more stable
# Summary of the method: as §1
Sequence,folding stability dG unfold [1],folding stability dG unfold [2],folding stability dG unfold [3]
SAYRIEIEIPSPKLAKKLEALLPPNYRIDNVRRNKNDNQVKITVEYDPGMPPSRMRRIHKEIKELIKELSAG [r14_306_TrROS],1.24 ± 0.088 kcal/mol,1.86 ± 0.18 kcal/mol,2.24 ± 0.077 kcal/mol
SAGGSAGGSAKTYEVKITVTNPNGEKKEITLEVEAETEEELLAAIKALAPPGAKVEIEIREVSAGGSAGGSA [r18_60_TrROS_Hall],4.33 ± 0.28 kcal/mol,4 ± 0.13 kcal/mol,3.67 ± 0.075 kcal/mol
SAGGSAVPTVRATFRYPDGLVAELEVPVLPDGTPRVVLRVGGVEREVSLEELARLPPEFELVSVDPSAGGSA [r2_431_TrMRF],0.517 ± 0.073 kcal/mol,0.826 ± 0.072 kcal/mol,0.996 ± 0.087 kcal/mol
SAGGSAGGSSMPFLNPDGHPAVLVEVDGSTGSLSVELRGPDGRPVLQVSVSVSGPATVTVRVGSAGGSAGGS [r12_960_JUSTAS],2.75 ± 0.11 kcal/mol,2.61 ± 0.079 kcal/mol,2.56 ± 0.086 kcal/mol
SAGGSAGGSGMTTTLTTEPRPDSTVVTTTTTTPTSVTTTTTVYDPDGNVVSTTTTTTPLPATSSAGGSAGGS [r12_710_JUSTAS],1.73 ± 0.059 kcal/mol,1.11 ± 0.028 kcal/mol,0.257 ± 0.018 kcal/mol
SAGGSAGGSAGMIVAKVVEYDPETGEITIEVDGKKITLPLKNMKIKEVNGYLVIEFKEDDSAGGSAGGSAGG [r17_403_TrROS_Hall],2.89 ± 0.11 kcal/mol,3.25 ± 0.072 kcal/mol,3.43 ± 0.082 kcal/mol
SAGGSAGGSAGGKDGYYKAIIELPGGEKREIVFKYEDFEEALKSLGIPLENVKIVKIEEGSAGGSAGGSAGG [r7_211_TrMRF],3.3 ± 0.2 kcal/mol,3.48 ± 0.18 kcal/mol,3.49 ± 0.11 kcal/mol
SAELEELLKKAEELAKKNNVEVEVEVKLELEPVKVTEYKLNKDGKPVEKKEEEELELRLEIKVKIRPKKSAG [r14_728_TrROS_Hall],1.26 ± 0.2 kcal/mol,2.58 ± 0.35 kcal/mol,3.22 ± 0.2 kcal/mol
SAGSSMSVTIKVTIRSPTRTEEIEITVSPSESLEEAIKKVAEKLPPDYSITITFEGGETVTIPIPKELLSAG [r5_77_JUSTAS],1.93 ± 0.1 kcal/mol,1.58 ± 0.089 kcal/mol,1.15 ± 0.024 kcal/mol
SAGGMSALRIVAENLPEDARVVLPDGRVFPPGVELELPLEADLDVVVALDEDGRVHHVERVPLDRPLLSAGG [r13_441_TrMRF],-0.352 ± 0.16 kcal/mol,-0.389 ± 0.099 kcal/mol,-0.501 ± 0.21 kcal/mol
SAGGSEAEIVSVEFDEETGTISVLVRNSDGSLYRAEIRFERLPDGSLLVTIKVTLPDGKELTFVFPSAGGSA [r2_488_TrROS_Hall],3.94 ± 0.11 kcal/mol,5.78 ± 0.19 kcal/mol,5.77 ± 0.085 kcal/mol
SAGGSAGGSMLVEVEYEGGERRTFPLENRSVEEAVEALPEGVTRVRVTVYLGEKPVEFEVERPSAGGSAGGS [r12_767_TrMRF],0.271 ± 0.077 kcal/mol,0.799 ± 0.052 kcal/mol,1.07 ± 0.067 kcal/mol
SAMDLLRERGYDVEEVTKLRDEVLPNGTIVTLYEVTVRLPDRVITTPIKVSGESEEEAEKLAYETVARESAG [r14_726_JUSTAS],0.49 ± 0.031 kcal/mol,0.543 ± 0.069 kcal/mol,0.582 ± 0.071 kcal/mol
SEEVEIEIRIRVEVDSLEEARALAEALEELGFEVEVKVVERDGKLVVEVTIRIRVPAPPPPPLSEEELKASA [r9_863_TrROS_Hall],2.49 ± 0.11 kcal/mol,2.17 ± 0.19 kcal/mol,1.55 ± 0.14 kcal/mol
SAGGMIRVEDTSTSVSIDIEITPLPNGQYKATITTTTTSAKLLPNGTPVTTTTPTTSTVTITPDVPLLSAGG [r13_561_JUSTAS],1.47 ± 0.053 kcal/mol,1.12 ± 0.14 kcal/mol,0.681 ± 0.15 kcal/mol
SAGGSAGGSKGVKELVIVVPPDKPEKIEEFLKKLRDEYAKDIKVLEVKETPDGGYIAKIKITDSAGGSAGGS [r12_91_TrMRF],1.4 ± 0.041 kcal/mol,1.85 ± 0.12 kcal/mol,1.96 ± 0.071 kcal/mol
SAGSSTTLTFPVDTKIPDEKGNPLSSSTVTVTVNPSPGKVTATLTDPATGTVTTVEFGSLEKVEAFLSSSAG [r14_508_JUSTAS],1.29 ± 0.042 kcal/mol,0.809 ± 0.067 kcal/mol,-0.218 ± 0.18 kcal/mol
SAGGMTVTVLEVTEEEVIIDDKKEKIITITIKLPDGTEITVTLSTSEIEAKGLTKEEAVEYIAKKLLSAGGS [r16_625_JUSTAS],3.55 ± 0.085 kcal/mol,3.99 ± 0.078 kcal/mol,4.16 ± 0.058 kcal/mol
SAGLKVESQTYDPATGTATVTPPLEGVPPDYTITVTDTATGKKTTLPPDGDVTLSNPTGPVTVTLTRPASAG [r14_134_JUSTAS],0.152 ± 0.038 kcal/mol,0.277 ± 0.074 kcal/mol,0.354 ± 0.093 kcal/mol
SAGGSAGGSTVEEIADFFKQQGFTDAEINVMPPPNGRRYVTVRFEMKEPNGNKHKMNFSIWIPSAGGSAGGS [r12_246_TrROS],2.53 ± 0.16 kcal/mol,2.31 ± 0.34 kcal/mol,1.99 ± 0.16 kcal/mol
SAGGSAPAKVEPLRVKIEFTPPNGEKHTFPMEIHRVHDNAIEIQDGGQPIRIPPNLDNIQITDIELSAGGSA [r15_510_TrROS],-0.614 ± 0.34 kcal/mol,0.356 ± 0.14 kcal/mol,0.558 ± 0.044 kcal/mol

Sequence,folding stability dG unfold [1],folding stability dG unfold [2],folding stability dG unfold [3]
SAGGSAGGSAMKTLVIEGLSLEEIEELAKEIPGKTVRIVFKDGSVITIYPDGKIEIEPLPESAGGSAGGSAG [r3_269_TrROS_Hall],1.75 ± 0.059 kcal/mol,2.37 ± 0.054 kcal/mol,2.64 ± 0.031 kcal/mol
SAGGSATIEEIANMPAEEIAQEHGMEVKDVDIERVPNGTITVEVEYEPPDGKKHKHTFQIKIDEGQSAGGSA [r15_805_TrROS],0.089 ± 0.1 kcal/mol,0.284 ± 0.2 kcal/mol,0.251 ± 0.11 kcal/mol
SAGGSAGGSTIRIRVKTREEAERLAKLIPGARITYDEETKEFYLEIRLPPAPPPSLEELKAALSAGGSAGGS [r20_191_TrROS_Hall],3.62 ± 0.062 kcal/mol,2.84 ± 0.058 kcal/mol,1.96 ± 0.038 kcal/mol
SAGGITIELRNPNGEPVEVHLKRDPDGTLELSVHMRGPEGRHYMVTMTIKVKNNGIEIDKFDNWYPLPSAGG [r13_451_TrROS],3.11 ± 0.092 kcal/mol,3.79 ± 0.11 kcal/mol,4.16 ± 0.084 kcal/mol
SAGGSAGGSAMTPQVIKVTLYKPATGDVRTVVVLDPVPNTSLDEVAAALPSDYVVAKVEVGSAGGSAGGSAG [r3_80_TrMRF],0.166 ± 0.079 kcal/mol,-0.0325 ± 0.14 kcal/mol,-0.308 ± 0.33 kcal/mol
SAGGSAGGTAEQIREIVEQLFRKRGMEPKKIEIKRVERNGDKVTIEVEWRWDNGRKRPRNIQIPSAGGSAGG [r6_841_TrROS],0.722 ± 0.17 kcal/mol,1.18 ± 0.17 kcal/mol,1.66 ± 0.12 kcal/mol
SMPEKYIVRVEVRGRDGKTVTFEAEATVDSSDFDDFIEAILEAPGLEDADEVRFYVYRLGTGRPEEFTVPSA [r9_97_TrMRF],2.01 ± 0.069 kcal/mol,2.7 ± 0.069 kcal/mol,3.03 ± 0.06 kcal/mol
SAGGSAGGSAGEEVLTLTFPVPPDAPPPGLEAIRESLPGLEDVELDAEELPDGTVRVVLSSAGGSAGGSAGG [r17_205_TrMRF],-0.558 ± 0.19 kcal/mol,-0.452 ± 0.68 kcal/mol,-0.172 ± 0.4 kcal/mol
SAGGSAGGSRKTILFRFPDGMMIKISLEENPNGNKRVRVTVYNPDNGKKRRMPADELPPNAKISAGGSAGGS [r12_797_TrROS],1.14 ± 0.079 kcal/mol,2.64 ± 0.15 kcal/mol,3.13 ± 0.09 kcal/mol
SAGGMEVKEISIPVPENLTPEQAVEKVKELFEKHPELEHVLVYFELPNGKPLVVEVDKNGKITKVEEKSAGG [r13_690_TrMRF],0.889 ± 0.041 kcal/mol,1.88 ± 0.095 kcal/mol,2.28 ± 0.048 kcal/mol
SAGGSAGGSDTIVVTLPDGTKITYDKENNEVYVYNLKTKKKIKFPKNMSLEEVLKAIKKLKKPSAGGSAGGS [r12_832_TrROS_Hall],2 ± 0.07 kcal/mol,2.71 ± 0.082 kcal/mol,2.982 ± 0.026 kcal/mol
SAGMAEEAREAARLFASELAPRFGVEAEIPEVRVEFDPETGEVHVHLEVLFRLPEPRTVRRDFVLVLPLSAG [r5_381_TrMRF],1.3 ± 0.086 kcal/mol,1.67 ± 0.1 kcal/mol,1.92 ± 0.13 kcal/mol
SAGGGTTITLSFADGTTKTLTLPGLTEVVEEPGRVVVRADVPERRVVVTFEPATGTITVEEFAPEEPVSAGG [r13_392_JUSTAS],0.818 ± 0.1 kcal/mol,1.86 ± 0.25 kcal/mol,2.27 ± 0.057 kcal/mol
SAGGPPPKWVKIDIFIFIYNPDNGRPIFIRITSIEIRLDENNELDVEIEFEVFDPNGKPVKYTMTFKSAGGS [r16_200_TrROS],3.81 ± 0.12 kcal/mol,4.45 ± 0.24 kcal/mol,4.8 ± 0.11 kcal/mol
SAGGSAGGSAGSMSVTLSTTVEVTVEPLPDYTIVTVTTTTTFPDGSTTTTVTTTPVPPDLGSAGGSAGGSAG [r3_330_JUSTAS],0.957 ± 0.24 kcal/mol,1.68 ± 0.22 kcal/mol,1.8 ± 0.15 kcal/mol
SGISNEEIKKILEEIAKEYPGLKIEIKPGTEPSVAKGPKAVVTLTRKPGYLEITITFPETGETTTIPIPPSA [r9_1062_JUSTAS],2.51 ± 0.072 kcal/mol,2.64 ± 0.043 kcal/mol,2.721 ± 0.02 kcal/mol
SAGGSAGGSDPNNEPVYIMMKFEIEIKVERDPENGKPKAEDPITITFIIRIPPNGNLEIGIMISAGGSAGGS [r12_438_TrROS],3.52 ± 0.11 kcal/mol,4.11 ± 0.12 kcal/mol,4.33 ± 0.13 kcal/mol
SAGGNWRIVEIPIKFPPGQDLTTIAKEIAKELLPPGEDVSINVEQRPNYMRIYIFYPEDGKPLWEIEISAGG [r13_724_TrROS],1.95 ± 0.054 kcal/mol,2.58 ± 0.075 kcal/mol,2.81 ± 0.048 kcal/mol
SAGGMELVIAVNSKEEAKKAAEEIKKKTPKGFKLEIEIEEYDLKENVEPEDKDIENIKVYLIKVKLESAGGS [r16_795_TrMRF],1.4 ± 0.13 kcal/mol,1.69 ± 0.23 kcal/mol,2.01 ± 0.21 kcal/mol
TTKTYTTPVIKKMTVTFDKTEGNEATLTITATLPDGTPVTLPFPLTLETGKLDPAVVEAAIKAAVATAIAQS [r1_124_JUSTAS],0.892 ± 0.07 kcal/mol,1.23 ± 0.2 kcal/mol,1.37 ± 0.12 kcal/mol
SAGGSAGGSAGGSAKITIEYNPETNTLTVTITLENGEKVEITVPPNATLEEIEELAKKASAGGSAGGSAGGS [r4_205_TrROS_Hall],3.41 ± 0.28 kcal/mol,3.04 ± 0.3 kcal/mol,2.49 ± 0.11 kcal/mol
